For this experiment, the target named is T1, catalytic domain of Streptococcus mutans GtfB (GtfB-CD) (Streptococcus mutans (UA159), UniProt P08987 191-1051).
T1 construct: Glucosyltransferase GtfB (GTF-I), Streptococcus mutans UA159, catalytic domain, residues 191-1051 (UniProt P08987); Cloned between NcoI and XhoI of pET-23d; also called GTF-I; source: E. coli BL21(DE3), pET-23d, purified (HisTrap FF, Mono Q, Superdex 200)
T1 sequence: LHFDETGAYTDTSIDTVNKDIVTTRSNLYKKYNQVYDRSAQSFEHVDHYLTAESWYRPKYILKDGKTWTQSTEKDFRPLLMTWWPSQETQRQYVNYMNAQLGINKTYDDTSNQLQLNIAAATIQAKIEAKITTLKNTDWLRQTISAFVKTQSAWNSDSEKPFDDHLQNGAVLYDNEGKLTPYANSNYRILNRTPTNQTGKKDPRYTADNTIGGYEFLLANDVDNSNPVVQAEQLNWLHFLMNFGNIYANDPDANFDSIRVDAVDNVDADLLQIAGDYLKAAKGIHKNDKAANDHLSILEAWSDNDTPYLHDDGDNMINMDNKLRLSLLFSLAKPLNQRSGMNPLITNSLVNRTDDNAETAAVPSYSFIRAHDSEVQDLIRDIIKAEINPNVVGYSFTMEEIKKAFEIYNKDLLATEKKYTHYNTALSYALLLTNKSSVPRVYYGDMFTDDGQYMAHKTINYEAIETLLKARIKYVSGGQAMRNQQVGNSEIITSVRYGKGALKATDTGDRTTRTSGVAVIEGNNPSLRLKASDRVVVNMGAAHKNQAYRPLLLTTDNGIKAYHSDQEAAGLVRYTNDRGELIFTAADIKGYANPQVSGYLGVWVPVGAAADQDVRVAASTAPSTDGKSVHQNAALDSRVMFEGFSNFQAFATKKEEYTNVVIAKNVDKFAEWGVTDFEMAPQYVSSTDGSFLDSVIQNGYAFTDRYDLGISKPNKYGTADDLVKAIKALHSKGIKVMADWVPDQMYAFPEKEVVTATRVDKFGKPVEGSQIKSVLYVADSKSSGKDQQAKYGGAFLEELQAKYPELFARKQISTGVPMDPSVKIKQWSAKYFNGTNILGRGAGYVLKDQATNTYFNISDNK
As to the kind of experiment: SPR; Biacore T200; iSRCR1 immobilised on a CM5 chip by amine coupling; analyte GtfB-CD 2-8 uM in 20 mM HEPES pH 7.4, 150 mM NaCl, 1 mM CaCl2 at 20 ul/min; each concentration in triplicate; kinetic fitting. To be noted: both partners purified. (SPR reads the build-up and loss of mass on a sensor chip optically.)

B1: recombinant scavenger receptor cysteine-rich domain 1 of Gp340 expressed in insect cells (iSRCR1) (domain or fragment)
chain: not shown
notes: Gp340 (salivary agglutinin), scavenger receptor cysteine-rich (SRCR) domain 1; source: recombinant, expressed in insect cells
A word on the Kd: it is a measure of binding affinity in units of concentration. In turn, B1 showed a Kd of 509 nM.

The values are drawn from article PMC10167749, “The catalytic domains of Streptococcus mutans glucosyltransferases: a structural analysis” (Acta Crystallographica. Section F, Structural Biology …, 2023).
